Laboratory results taken from patent publication US9096654B2, “Peptides capable of modulating the function of TIRC7” (CELLACT PHARMA GMBH, priority 2005, dated 2015).

Assays:
PBMC = assay: Mixed lymphocyte reaction (MLR): inhibition of proliferation of stimulated PBMC by TIRC7 derived peptides; assay type: cell-based; conditions: mitomycin-inactivated PBMC (stimulator), CFSE-stained PBMC (responder), 6 days incubation with peptide in PBS, pH 7.3
Procedure: As described in Example 1 herein, peptides were tested for their ability to inhibit proliferation of mitomycin-stimulated PBMCs.
Freshly isolated PBMC were inactivated with mitomycin (stimulator), or stained with CFSE (responder). Cells were incubated for 6 days with the peptides as described in FIG. 1, dissolved in PBS and titrated to pH 7.3. Subsequently, an in vitro assay, mixed lymphocyte reaction (MLR), was performed essentially as described in international applications WO99/11782 and WO03/025000 to analyze the potency of the tested TIRC7 derived peptides to inhibit the immune response. For all peptides shown in FIG. 1 substantial inhibition of proliferation could be observed.

activated T-cells = conditions: dose dependent, cited from earlier work

Molecule | inhibition of proliferation (PBMC) | suppression of proliferation of activated T-cells in MLR (activated T-cells; MLR) | suppression of proliferation of T-cells (activated T-cells; in response to alloactivation in a mixed lymphocyte culture or in response to mitogens)
D46M: synthetic peptide derived from the third extracellular domain of TIRC7 protein (SEQ ID NO: 3, FIG. 1) (DRQEENKAGLLDLPDASVNGWSSDEEKAGGLDDEEEAELVPSEVLM; TIRC7 peptide) | Particular advantageous |  | 
TIRC7: in vitro translated T-cell immune response cDNA 7 protein, involved in signal transduction of T-cell activation and/or proliferation (protein, UniProt Q13488 1-830, looked up, TIRC7 in vitro translated) V-type proton ATPase 116 kDa …: MGSMFRSEEVALVQLFLPTAAAYTCVSRLGELGLVEFRDLNASVSAFQRRFVVDVRRCEELEKTFTFLQEEVRRAGLVLPPPKGRLPAPPPRDLLRIQEETERLAQELRDVRGNQQALRAQLHQLQLHAAVLRQGHEPQLAAAHTDGASERTPLLQAPGGPHQDLRVNFVAGAVEPHKAPALERLLWRACRGFLIASFRELEQPLEHPVTGEPATWMTFLISYWGEQIGQKIRKITDCFHCHVFPFLQQEEARLGALQQLQQQSQELQEVLGETERFLSQVLGRVLQLLPPGQVQVHKMKAVYLALNQCSVSTTHKCLIAEAWCSVRDLPALQEALRDSSMEEGVSAVAHRIPCRDMPPTLIRTNRFTASFQGIVDAYGVGRYQEVNPAPYTIITFPFLFAVMFGDVGHGLLMFLFALAMVLAENRPAVKAAQNEIWQTFFRGRYLLLLMGLFSIYTGFIYNECFSRATSIFPSGWSVAAMANQSGWSDAFLAQHTMLTLDPNVTGVFLGPYPFGIDPIWSLAANHLSFLNSFKMKMSVILGVVHMAFGVVLGVFNHVHFGQRHRLLLETLPELTFLLGLFGYLVFLVIYKWLCVWAARAASAPSILIHFINMFLFSHSPSNRLLYPRQEVVQATLVVLALAMVPILLLGTPLHLLHRHRRRLRRRPADRQEENKAGLLDLPDASVNGWSSDEEKAGGLDDEEEAELVPSEVLMHQAIHTIEFCLGCVSNTASYLRLWALSLAHAQLSEVLWAMVMRIGLGLGREVGVAAVVLVPIFAAFAVMTVAILLVMEGLSAFLHALRLHWVEFQNKFYSGTGYKLSPFTFAATDD |  | significantly suppressed | efficiently suppress
A61V: synthetic peptide derived from the third extracellular domain of TIRC7 protein (SEQ ID NO: 4, FIG. 1) (TIRC7 peptide) ADRQEENKAGLLDLPDASVNGWSSDEEKAGGLDDEEEAELVPSEVLMHQAIHTIEFCLGCV | Particular advantageous |  | 
